From PMC7772352

Molecular target: Tva-HA-Fc

| Substance | percentage of GFP fluorescence signal in DF-1 cells transfected with RCASBPGDFX0602 G196A-EGFP (recombinant virus; wild type 89.65%) [%] | percentage of GFP fluorescence signal in DF-1 cells transfected with RCASBP GDFX0602 R198H-EGFP (recombinant virus; wild type 89.65%) [%] |
| --- | --- | --- |
| soluble gp85-flag G196A (natural protein) | 0.24 | – |
| soluble gp85-flag R198H (natural protein) | – | 0.49 |
